Data on two molecules can be found in patent US20100249383A1, “Novel Ligand Involved In The Transmigration Of Leukocytes Across the Endothelium and Uses Therefor” (The Regents of The University of California and The Burnham …, priority 2001, published 2010).

Series [1] concerns the target T1, RAGE deglycosylated by PNGase F (bovine, UniProt Q28173 23-416, N-linked oligosaccharides removed by PNGase F (mass decreased by about 4500 daltons)).
T1 construct: also called deglycosylated RAGE; PNGase F digested RAGE
T1 sequence (looked up): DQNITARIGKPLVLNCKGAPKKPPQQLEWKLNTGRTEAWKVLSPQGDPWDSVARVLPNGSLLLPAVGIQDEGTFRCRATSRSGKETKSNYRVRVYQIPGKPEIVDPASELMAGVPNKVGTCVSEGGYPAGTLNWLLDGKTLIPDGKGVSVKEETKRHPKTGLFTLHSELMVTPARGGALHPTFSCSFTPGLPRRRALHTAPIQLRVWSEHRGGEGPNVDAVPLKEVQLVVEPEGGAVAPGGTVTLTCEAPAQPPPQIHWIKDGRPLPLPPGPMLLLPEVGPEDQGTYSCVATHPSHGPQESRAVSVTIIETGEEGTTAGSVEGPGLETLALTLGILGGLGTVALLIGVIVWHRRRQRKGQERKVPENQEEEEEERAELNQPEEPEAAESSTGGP
Description: saturation binding of 125I amphoterin to immobilized RAGE deglycosylated by PNGase F. As to the method: (§1) Amphoterin was radioiodinated using Na ¹²⁵I and Iodo-Beads Iodinating Reagent (Pierce) to a specific activity of 5×10³ cpm/ng protein. Saturation binding experiments were done by a slight modification of the method of Hori et al (Hori at al., J. Biol. Chem., 270:25752-61 [1995]). Briefly, purified RAGE was immobilized on microliter wells and the wells blocked with 3% BSA. Wells were incubated at 4° C. overnight with increasing concentrations of ¹²⁵I amphoterin in HBSS containing 0.1% BSA in the presence or absence of desialylated carboxylate-enriched (COO⁻) or CONHMe bovine lung glycopeptides, or 20 μg/ml mAbGB3.1 or an unrelated anti-carbohydrate monoclonal antibody, or 100 fold excess of unlabeled amphoterin. Binding was also tested on RAGE deglycosylated by PNGase F under non-denaturing conditions. Wells were washed, bound amphoterin was eluted with 2 M NaCl, and radioactivity was measured using a gamma counter. Non-linear regression analysis was done using the GraphPad Prism program.
The binding of a single concentration of labeled ligand was also tested in presence of various concentrations of COO⁻ or neutral glycopeptides. […] Binding was also found to be reduced in presence of mAbGB3.1, while a non-relevant antibody is ineffective (FIG. 24, Panel C).

Series [2] concerns the target T2, RAGE from bovine lung (native, purified/immunoprecipitated) (bovine, UniProt Q28173 23-416, carries PNGaseF-sensitive carboxylated N-linked oligosaccharides).
T2 construct: Released from mAbGB3.1 beads after immunoprecipitation of bovine lung homogenate; also called bovine lung RAGE; bovine RAGE
T2 sequence (looked up): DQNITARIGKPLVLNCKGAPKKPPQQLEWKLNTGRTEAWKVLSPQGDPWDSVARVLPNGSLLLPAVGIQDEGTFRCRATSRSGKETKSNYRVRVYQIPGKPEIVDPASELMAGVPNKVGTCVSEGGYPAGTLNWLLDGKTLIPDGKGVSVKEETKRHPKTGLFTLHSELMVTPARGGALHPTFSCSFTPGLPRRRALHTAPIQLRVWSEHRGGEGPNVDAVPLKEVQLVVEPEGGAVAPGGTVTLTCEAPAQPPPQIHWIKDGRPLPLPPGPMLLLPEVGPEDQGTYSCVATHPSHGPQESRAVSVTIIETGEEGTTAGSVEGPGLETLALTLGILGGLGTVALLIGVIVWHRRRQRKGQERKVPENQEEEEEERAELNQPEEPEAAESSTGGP
The series is described as follows: saturation binding of 125I amphoterin to RAGE immobilized on microtiter wells, non-linear regression. How it is done: as §1
(§2) Specific binding is defined as the total binding minus non-specific binding measured in presence of 100-fold excess of unlabeled amphoterin. The […] binding was 3-4% of total binding. Then, the possibility that amphoterin binding is dependent upon the N-glycans on RAGE was examined.

The target of series [3] is T2, RAGE from bovine lung (native, …). Description: saturation binding of 125I amphoterin to immobilized RAGE in presence of soluble COO- glycopeptides. As to the method:
as §1, §2

Series [4] deals with the molecule itself. The series is described as follows: BS3 chemical cross-linking of neutrophil extracts, immunoblot. As to the method: In these experiments, 96-well plates were coated with 250 ng of BSA coupled […] asialo-COO⁻ lung glycopeptides for 4 h at 37° C. and blocked with 3% BSA in PBS overnight. Human neutrophil extracts were sequentially incubated in each of four wells for 30 min/well at 37° C. in leukocyte activation buffer (described above), in presence or absence of 200 μM […] asialo-COO⁻ glycopeptides or asialo-CONHMe-glycopeptides. After incubation, the supernatants from the incubation wells were collected and protein depletion was analyzed by immunoblotting using the respective antibodies. For detection of S100A8/A9 complexes, the proteins in the supernatants were stabilized by chemical cross-linking using bis-sulfosuccinimidyl suberate (BS³) as known in the art (See, Staros, Biochem., 21:3590 [1982]). Briefly, the cross linker was added from a fresh 2 mM stock solution to neutrophil lysates obtained as described above, to a final concentration of 200 μM, and the mixture was incubated at room temperature for 30 min. Reactions were quenched by the addition of 1 M Tris to a final concentration of 10 mM and samples were stored at −80° C., until they were assayed. Cross-linked samples were incubated with 2-mercaptoethanol prior to separation on SDS-PAGE. Since crude lysates were used in the cross-linking, it is conceivable that non-specific cross-linking could occur. […]
In general terms: Immunoblotting shows a protein as a band on a membrane.

In series [5] the target is T3, human S100A9 (human, UniProt P06702 2-114, limits assumed).
T3 construct: also called MRP14; MRP9
T3 sequence (looked up): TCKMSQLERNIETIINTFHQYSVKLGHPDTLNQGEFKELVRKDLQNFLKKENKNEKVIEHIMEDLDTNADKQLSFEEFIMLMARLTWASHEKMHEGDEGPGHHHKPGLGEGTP
Description: co-purification from human neutrophil cytosol. From the text:
Chem., 266:7706 [1991]). […] The proteins remained as heteromeric complexes through purification, were even retained on YM10 and YM30 ultrafiltration membranes, and could not be separated into individual proteins without denaturation. The molecular masses of the purified proteins as determined by SDS gels was 11 kDa and 14 kDa for S100A8 and S100A9 respectively (data not shown). […] Binding to BSA coupled asialo-COO⁻ bovine lung glycopeptides immobilized on microtiter plates was inhibited in presence of 0.3 M asialo-COO⁻ glycopeptides, but much less effectively by the asialo-CONHMe-glycopeptides. In FIG. 19, each point is the mean of two determinations.
All steps were carried out at 4° C., unless otherwise indicated. […] Briefly, 100 ml peripheral blood was obtained from healthy volunteers and neutrophils obtained by Ficoll-Hypaque centrifugation as indicated above. The cells were lysed in PBS containing 1 mM DTT, 1% NP40 and protease inhibitors, and subjected to ultracentrifugation at 160,000×g for 30 min. The protein in the supernatant was adjusted to 2 mg/ml with the above buffer, and the solution stirred on ice. Solid ammonium sulfate was slowly added to a final concentration of 75% (w/v) and stirred for 1 h. […] S100A8/A9 proteins eluted at 35-50% acetonitrile, and were >90% pure as determined by SDS gels.

B1: amphoterin (baculovirus expressed rat amphoterin) (ligand, UniProt P63159 2-215, looked up)
chain: GKGDPKKPRGKMSSYAFFVQTCREEHKKKHPDASVNFSEFSKKCSERWKTMSAKEKGKFEDMAKADKARYEREMKTYIPPKGETKKKFKDPNAPKRPPSAFFLFCSEYRPKIKGEHPGLSIGDVAKKLGEMWNNTAADDKQPYEKKAAKLKEKYEKDIAAYRAKGKPDAAKKGVVKAEKSKKKKEEEDDEEDEEDEEEEEEEEDEDEEEDDDDE
modifications: radioiodinated (125I) in the binding assays
notes: the only purified amphoterin in the materials is the baculovirus expressed rat protein; also called recombinant amphoterin
The Kd is the concentration at which binding is half-saturated. As to B1, the Kd is approximately 18.2 nM in series [1], approximately 10.7 nM in series [2] and approximately 12.6 nM in series [3].

B2: human S100A8 (other, UniProt P05109 1-93, looked up)
chain: MLTELEKALNSIIDVYHKYSLIKGNFHAVYRDDLKKLLETECPQYIRKKGADVWFKELDINTDGAVNFQEFLILVIKMGVAAHKKSHEESHKE
notes: also called MRP8; CP-10
In the case of B2, the binding result in series [4] and in series [5] was “binds” in each case.
